B1: HPV45 E6 11 peptide … (SEQ ID NO: 15737) (peptide)
peptide: PYKLPDLCTEL
modifications: not checked
B2: HPV16 E6 51 … (peptide)
peptide: DFAFRDLCI
modifications: not checked
B3: HPV16 E6 87 … (peptide)
peptide: CYSLYGTTL
modifications: not checked
B4: HPV16 E6 66 … (peptide)
peptide: PYAVCDKCL
modifications: not checked
B5: HPV16 E6 38 VYCKQQLL (peptide)
peptide: VYCKQQLL
modifications: not checked
B6: HPV16 E6 131 … (peptide)
peptide: RFHNIRGRW
modifications: not checked
B7: HPV16 E7 58 … (peptide)
peptide: CCKCDSTLR
modifications: not checked
B8: HPV16 E7 68 … (peptide)
peptide: CVQSTHVDIR
modifications: not checked
B9: HPV16 E7 44 … (peptide)
peptide: QAEPDRAHY
modifications: not checked
B10: HPV31 E1 566 … (A03 motif peptide) (peptide)
peptide: FTFPNPFPF
modifications: not checked
B11: HPV16 E6 39 … (peptide)
peptide: YCKQQLLRR
modifications: not checked
B12: HPV16 E7 88 … (peptide)
peptide: GIVCPICSQK
modifications: not checked
B13: HPV16 E7 89 … (peptide)
peptide: IVCPICSQK
modifications: not checked
B14: HPV16 E7 2 … (peptide)
peptide: HGDTPTLHEY
modifications: not checked
B15: HPV18 E7 peptide … (position 75, 9 amino acids) (peptide)
peptide: VVESSADDL
modifications: not checked
B16: HPV18 E7 peptide KLVVESSA (position 73, 8 amino acids) (peptide)
peptide: KLVVESSA
modifications: not checked
B17: HPV18 E7 peptide … (position 74, 10 amino acids) (peptide)
peptide: LVVESSADDL
modifications: not checked
B18: HPV18 E7 peptide … (position 43, 9 amino acids) (peptide)
peptide: GVNHQHLPA
modifications: not checked
B19: HPV18 E7 peptide … (position 73, 11 amino acids) (peptide)
peptide: KLVVESSADDL
modifications: not checked
B20: HPV18 E1 216 peptide … (peptide)
peptide: AVFKDTYGL
modifications: not checked
B21: HPV18 E7 peptide FLNTLSFV (position 90, 8 amino acids) (peptide)
peptide: FLNTLSFV
modifications: not checked
B22: HPV18 E7 peptide … (position 12, 10 amino acids) (peptide)
peptide: VLHLEPQNEI
modifications: not checked
B23: HPV18 E7 peptide … (position 84, 10 amino acids) (peptide)
peptide: RAFQQLFLNT
modifications: not checked
B24: HPV18 E7 peptide HLEPQNEI (position 14, 8 amino acids) (peptide)
peptide: HLEPQNEI
modifications: not checked
B25: HPV18 E7 peptide … (position 14, 10 amino acids) (peptide)
peptide: HLEPQNEIPV
modifications: not checked
B26: HPV18 E1 273 peptide … (peptide)
peptide: CLDCKWGVLI
modifications: not checked
B27: HPV18 E7 peptide … (position 61, 10 amino acids) (peptide)
peptide: MLCMCCKCEA
modifications: not checked
B28: … (HPV18 E6, position 11, 11 amino acids) (peptide)
peptide: PYKLPDLCTEL
modifications: not checked
B29: … (HPV18 E6, position 98, 9 amino acids) (peptide)
peptide: LYNLLIRCL
modifications: not checked
B30: FYSRIREL (HPV18 E6, position 71, 8 amino acids) (peptide)
peptide: FYSRIREL
modifications: not checked
B31: HPV45 E6 position 11 peptide … (SEQ ID NO: 46119) (peptide)
peptide: PYKLPDLCTEL
modifications: not checked
B32: HPV45 E6 position 98 peptide … (SEQ ID NO: 46118) (peptide)
peptide: LYNLLIRCL
modifications: not checked
B33: … (HPV18 E6, position 33, 9 amino acids) (peptide)
peptide: VYCKTVLEL
modifications: not checked
B34: HPV45 E6 position 71 peptide FYSRIREL (SEQ ID NO: 46116) (peptide)
peptide: FYSRIREL
modifications: not checked
B35: … (HPV18 E6, position 44, 10 amino acids) (peptide)
peptide: VFEFAFKDLF
modifications: not checked
B36: HPV16 E6 peptide … (position 29, 10 amino acids) (peptide)
peptide: TIHDIILECV
modifications: not checked
B37: HPV16 E7 peptide … (position 14, 9 amino acids) (peptide)
peptide: DLQPETTDL
modifications: not checked
B38: HPV16 E7 peptide DIRTLEDL (position 75, 8 amino acids) (peptide)
peptide: DIRTLEDL
modifications: not checked
B39: HPV16 E7 peptide … (position 73, 10 amino acids) (peptide)
peptide: HVDIRTLEDL
modifications: not checked
B40: HPV16 E7 peptide LLMGTLGI (position 82, 8 amino acids) (peptide)
peptide: LLMGTLGI
modifications: not checked
B41: HPV16 E7 peptide … (position 81, 9 amino acids) (peptide)
peptide: DLLMGTLGI
modifications: not checked
B42: HPV16 E7 peptide … (position 12, 11 amino acids) (peptide)
peptide: MLDLQPETTDL
modifications: not checked
B43: HPV16 E7 peptide LMGTLGIV (position 83, 8 amino acids) (peptide)
peptide: LMGTLGIV
modifications: not checked
B44: HPV16 E7 peptide MLDLQPET (position 12, 8 amino acids) (peptide)
peptide: MLDLQPET
modifications: not checked
B45: HPV16 E7 peptide … (position 77, 10 amino acids) (peptide)
peptide: RTLEDLLMGT
modifications: not checked
B46: HPV16 E7 peptide … (position 12, 9 amino acids) (peptide)
peptide: MLDLQPETT
modifications: not checked
B47: HPV16 E7 peptide … (position 66, 9 amino acids) (peptide)
peptide: RLCVQSTHV
modifications: not checked
B48: HPV16 E7 peptide … (position 81, 10 amino acids) (peptide)
peptide: DLLMGTLGIV
modifications: not checked
B49: … (HPV16 E6, position 143, 9 amino acids) (peptide)
peptide: CMSCCRSSR
modifications: not checked
B50: … (HPV16 E6, position 146, 9 amino acids) (peptide)
peptide: CCRSSRTRR
modifications: not checked
B51: … (HPV16 E6, position 134, 9 amino acids) (peptide)
peptide: NIRGRWTGR
modifications: not checked
B52: … (HPV16 E6, position 64, 9 amino acids) (peptide)
peptide: GNPYAVCDK
modifications: not checked
B53: … (HPV16 E6, position 68, 10 amino acids) (peptide)
peptide: AVCDKCLKFY
modifications: not checked
B54: … (HPV16 E6, position 117, 9 amino acids) (peptide)
peptide: LCPEEKQRH
modifications: not checked
B55: AVCDKCLK (HPV16 E6, position 68, 8 amino acids) (peptide)
peptide: AVCDKCLK
modifications: not checked
B56: … (HPV16 E6, position 125, 9 amino acids) (peptide)
peptide: HLDKKQRFH
modifications: not checked
B57: … (HPV16 E6, position 59, 9 amino acids) (peptide)
peptide: IVYRDGNPY
modifications: not checked
B58: … (HPV16 E6, position 7, 9 amino acids) (peptide)
peptide: AMFQDPQER
modifications: not checked

Each binder was assayed against HLA-A*2402 (human) (assay: not given). Settings: not given.

Row | Binder | relative binding ratio (IC50 of standard peptide / IC50 of test peptide) | binding affinity ratio (IC50 of standard peptide / IC50 of test peptide)
1 | B1 | 0.0064 | 
2 | B2 |  | 0.0003
3 | B3 |  | 0.046
4 | B4 | 0.0078 | 
5 | B5 | 0.0069 | 

Same assay, conditions: remark: other sources report otherwise

Row | Binder | relative binding ratio (IC50 of standard peptide / IC50 of test peptide)
6 | B6 | 0.022

These binders were tested against HLA-A*0301 (human) (assay: competitive inhibition of 125I-labelled standard peptide binding to purified HLA-A*0301, gel filtration). Settings: not given.

Row | Binder | relative binding ratio (IC50 of standard peptide / IC50 of test peptide) (ratio to standard peptide)
7 | B7 | 0.0003
8 | B8 | 0.0049
9 | B9 | 0.0002
10 | B10 | 0.0008
11 | B11 | 0.0003

Same assay, conditions: remark: other sources report otherwise

Row | Binder | relative binding ratio (IC50 of standard peptide / IC50 of test peptide) (ratio to standard peptide)
12 | B12 | 0.0003
13 | B13 | 0.0077
14 | B14 | 0.0001

These binders were tested against HLA-A*0201 (human) (assay: competition with 125I-labeled standard peptide for purified HLA-A*0201, gel filtration). Settings: not given.

Row | Binder | relative binding ratio (IC50 of standard peptide / IC50 of test peptide) (ratio to standard peptide)
15 | B15 | 0.0003
16 | B16 | 0.0001
17 | B17 | 0.0001
18 | B18 | 0.0001
19 | B19 | 0.0001
20 | B20 | 0.014
21 | B21 | 0.0079
22 | B22 | 0.0001
23 | B23 | 0.0003
24 | B24 | 0.0001
25 | B25 | 0.0001
26 | B26 | 0.0002
27 | B27 | 0.0016

Molecular target: HLA-A*2402 (human)
Experiment: not given
Settings: not given
Remark: another data set of the same source

Row | Binder | relative binding ratio (IC50 of standard peptide / IC50 of test peptide) | binding affinity ratio (IC50 of standard peptide / IC50 of test peptide) | relative binding ratio (IC50 of standard peptide / IC50 of test peptide) (ratio to standard peptide)
28 | B28 | 0.0064 |  | 
29 | B29 | 0.0001 |  | 
30 | B30 | 0.026 |  | 
31 | B31 |  | 0.0064 | 
32 | B2 |  |  | 0.0003
33 | B3 |  |  | 0.046
34 | B32 |  | 0.0001 | 
35 | B4 |  |  | 0.0078
36 | B33 | 0.022 |  | 
37 | B34 |  | 0.026 | 
38 | B35 | 0.036 |  | 
39 | B5 |  |  | 0.0069

Same assay, conditions: remark: other sources report otherwise

Row | Binder | relative binding ratio (IC50 of standard peptide / IC50 of test peptide) (ratio to standard peptide)
40 | B6 | 0.022

These binders were tested against HLA-A*0201 (human) (assay: inhibition of binding of 125I-labelled standard peptide to purified HLA, gel filtration). Settings: not given.

Row | Binder | relative binding ratio (IC50 of standard peptide / IC50 of test peptide)
41 | B36 | 0.021
42 | B37 | 0.0003
43 | B38 | 0.0001
44 | B39 | 0.0001
45 | B40 | 0.0008
46 | B41 | 0.0002
47 | B42 | 0.0005
48 | B43 | 0.0001

Same assay, conditions: remark: other sources report otherwise

Row | Binder | relative binding ratio (IC50 of standard peptide / IC50 of test peptide)
49 | B44 | 0.0001
50 | B45 | 0.0006
51 | B46 | 0.0028
52 | B47 | 0.0003
53 | B48 | 0.0005

These binders were tested against HLA-A*1101 (human) (assay: competition with 125I-labelled standard peptide on purified HLA-A*1101, gel filtration). Settings: not given.

Row | Binder | binding affinity ratio (IC50 of standard peptide / IC50 of test peptide) (ratio to standard peptide)
54 | B49 | 0.0001
55 | B50 | 0.0001
56 | B51 | 0.0005
57 | B52 | 0.0001
58 | B53 | 0.019
59 | B54 | 0.0001
60 | B55 | 0.011

Same assay, conditions: remark: other sources report otherwise

Row | Binder | binding affinity ratio (IC50 of standard peptide / IC50 of test peptide) (ratio to standard peptide)
61 | B56 | 0.0001
62 | B57 | 0.15
63 | B58 | 0.032

From patent publication US7026443
